In publication PMC10653854 (mBio, 2023):
Where “and” joins values, the source holds several entries; their conditions need not be identical. Equal values may be shown once.

Tests used:
Settings in all cases: both partners purified
[1] = molecular target: T1, yellow fever virus (YFV) strain Asibi soluble E ectodomain (sE) (yellow fever virus, strain Asibi); experiment: ITC
[2] = molecular target: T1, yellow fever virus (YFV) strain Asibi …; experiment: SPR; pH 6; pr injected over immobilized sE; Biacore T200, 25°C
[3] = molecular target: T1, yellow fever virus (YFV) strain Asibi …; experiment: SPR; pH 8; pr injected over immobilized sE; Biacore T200, 25°C

B1: recombinant purified yellow fever virus (YFV) pr protein (natural protein)
chain: not shown
[1]
  dH: -16.6 kcal/mol and -16.3 kcal/mol
  stoichiometry N: 0.9
[2]
  Kd: 6.2 nM
  koff: 0.00236 s⁻¹
  kon: 380000 M⁻¹ s⁻¹
[3]
  Kd: 19.7 nM
  koff: 0.00134 s⁻¹
  kon: 70000 M⁻¹ s⁻¹
